Laboratory results: the DeepSol protein solubility set

Assay: soluble on expression in E. coli; label from the status in PepcDB or PDB records
In the case of “KASDQFIVYRASIAGPTMIAGYHWFNERGRDILIALPGLALVPQRFDLAKGVLRTFRHYYRHGLMPNVFPDADGEPLYNSIDAALWWVETLGLYLEATQDWEFLAEQFSVVQQIHKAFVGGTHYNIQVDAIDGLISWDARGVALTWMDVVIGANPVTPRHGKPVEINALWYSALCWLSRWAERLSSLELGDPVRLTKQAQRYALQAEKVKTSLQKFWNPQLGYLYDTIEPDDRRNFQIRPNAVLALSLHHCGFSAQQGSQILDLATISLLTPYGLRSLDPGDPEYKGRYEGNQEQRDRAYHQGTVWGWLIGPYIRAWQRFYPEQSLPFDWQPLLDHFLSGACLGSISEIFDGDAPHTPRGAIAQAWSVAEIIRHIQK”, the “soluble on expression in E. coli” value is reported as “not soluble”.
For “MGSDKIHHHHHHMQGLGLIVCRQGSFQFSLDNKCASAKAGETLFIHEESWVQVLQETEDVEILILAYQIEPIRDIIGNSVVSMYMYSKLTPELSCVWNTGEEDEIMKYMSLIDSVLEMEESVFSLYEQKLLLLALTYRICSVYNRKLISAGQETGGRKNEIFVRLIQLIEQYYMQERSVEFYADKLCLSPKYLSALSKSICGYTVQELVFKAIIRKCISLLKNTQKNIQEISNEFGFPNASYFGTFFKKQMGMSPQQYRRNL”, the “soluble on expression in E. coli” value was “not soluble”.
In the case of “MGSDKIHHHHHHMKVEITVSEDRMQAYVTLRKEGSSELPLTKEELLNALLSAGINHGIKEEIIEDLARSPVYNTPVLVAEGTPPVDGEDGRVELLKKIEFSSHEGEKIDLREIPAKQRVIVRKGETIARIIPPTPGKEGMDVFGNPVKPKPGRVPEYHLGYNVATKNNEIIATKSGILVIEPNGTIHVYDTLEVDNVDYSTGNIDFPGKVVVKGDVKPDFVVKAQEDITVKGVIEAATVISFNGSITAGGIKGRGKAFVKAKKTVKAVFIESAEVEAEEVQVEKNIENSAVKAINVVVSGKGGSIRGGITIAQVKVETYFLGSPIGVKTRVEVGVDPEINEKIKLLSAQISLDRENVQKLTKLLVELRKLQGMLKDKFPPDKEALLNKVNNTLINLRDSIQKNEGELKRLKEIAEEMAKNASVVVKEVVYSGVEIVMFERVFRVEKELAKAVFYYRDGEIRVGGYSA”, the “soluble on expression in E. coli” value is reported as “not soluble”.
In the case of “MGSDKIHHHHHHVVDVAHAVKPMSVPQRIEQASRHDLLVLSSQSGPRQSAWSSLTSALGGQDIDDHAGMPCRRVMLMLAEHEAELLRRECQLIPIVGADAVAQSVTLTKKAVPGNWCAWGVLDRDAAQQHLDAKIVSMGARLRDEPAFGLMFSCLARGPHFYDGVDQDIALLKRYYPSMPVIGFYGNGEIAPLNGRNVLWQNSVVLGLFTAES”, the “soluble on expression in E. coli” value is reported as “not soluble”.
For “MDKLDTLTLFVRIVERGSFSAAAADLGVSRPVATAAIKALEVSLGARLLHRTTRHVRPTAEGSLYYQRCVSILAALEEANRSAGGSISGTIRVDVAGNLARTLLLPALPQFLARYPDITLQIGESERDVDLVREGVDCVIRGGHLPDSEMICRPLAGLQEITCASPTYLARYGTPHTIEGLTGHVMIGFVSSRTQRTLPLSFTQDGRQSEVSLPCRLLTSDADVGAEAARLGFGLYQAPLPRLEADLASGALTEVLADFRPAPLPLSLLYPSNRQLSARVQVFIDWVTALMKPPLAQQASGRLK”, the “soluble on expression in E. coli” value was “not soluble”.
For “MPNTTNKDYTKYSQRQLFSFLNSIKTKQKRALEKLKEIQAQKQRIKKALQFKALNLTENGYTIEEEREILARAKDTKNRLCFKSIEDFKKHCENL”, the “soluble on expression in E. coli” value was “not soluble”.
With “MANQIYLFSLICLSVLLCQSYTVSSFQKSLDLAKPCKRFVLHLHDIAYDGDNAANATSAAIVNPLGLGDFSFGKFVIMDDPVTMDQNYLSKPVARVQGFFCYHGKATYDAWIAWTVVFNSTQHKGAFTIMGENPFMEPTRDLPIVGGTGDFIMTRGIATLTTDHIDGSKYFRVKLDIKLYECYH” the “soluble on expression in E. coli” value was “soluble”.
With “RQANELPGAPSQEEAVIAFGKFKLNLGTREMFREDEPMPLTSGEFAVLKALVSHPREPLSRDKLMNLARGREYSAMERSIDVQISRLRRMVEEDPAHPRYIQTVWGLGYVFVPDGSKA” the “soluble on expression in E. coli” value was “soluble”.
With “MIKPYDFVPFLPYKPYDDVKAERGDGKIPIRVKTLTPVHIPSGEYTVSGDNSMIYKEFVKVNGVPVIPGTSFKGCIRSIAESISYSCLYIFDKQKKELIPEFKLEAQEKDHEKNKEQRNENGKKCIVSDMFGMPGQKSKIVFNDLRGVPNKYKLEIKGIPTSFRPNPDAEYYLENGKYKGYKFYKHGINGIQPKGNMLCEFAAENSLFEGEIIYKNLTEEQIRLLCFSLGLSGDINPKIGYGKNYFYGSIEVTSDAKWVEKAKQYKNIEKDDIKNNINLIISILNYKNAVTSVD” the “soluble on expression in E. coli” value was “soluble”.
In the case of “MAHHHHHHMGLYKSIYFVDGGCCAVKFNAITGLKNRTYGEGANFAIPFLETPVVFDIRNKPTEVLTATGSRDLQTVNLAVRVLYQPHVSALPDIYRNVGMEYAETVLPSLVNEIIRAVIAQFNASDLLVKRPEVSNRIGVMLAERAKRFHIDITDVSITQMSFGKEYTSAVEAKQVAQQMAERAKWRVEQAEQEKEGAILLAKGEAEAAKLIGMAVQKNPAFITLRSLEASRTIADLMRQKGSGSFYIDSDTLSLNTQTIGH”, the “soluble on expression in E. coli” value is reported as “not soluble”.
For “MKTITQQYLTGERALFKAHDLEIDNTTFADGESPLKESRNVTLKQPIFKWKYPLWYSQHVTVDQGLFETMSRSGIWYTKDITITNSTLQAPKLFRRASQVKLAHVHFSDAEETLWNCQDITLNDVQAAGDYFGMNSQNIRIDGFNLVGNYAFDGAKNVEIHHATLMTKDALWNCENVTVYDSQIIGEYLGWNSKNIRFVNCTIESDQGLCYMDNVKLENCTLLNTDLAFEYCRNIDADVVSTIDSVKNPLSGRIHAQAIGEIIMDDPEVDPHQTLISVDHESRAPHAV”, the “soluble on expression in E. coli” value was “not soluble”.
For “MGSDKIHHHHHHMPLPENSVVEKNILNPEAVAEALERAMNLANPQTTHAAIAVPTSTVIHKTIEMDADMSDDEREVQIRVDAEQYIPFPLDEVSLDFEVLPDRLANPNRVNVLLVATRTENVETRVEVLELADLNPKLADVESYAVERAFSVFADSLPMGANTIGILDIGHTMTTLSVMQNGKIIYTREQVFGGKQLTLEIQSRYGLSLEEASRAKKDRSLPDDYEIEVLDPFLDAVVQQAARSLQFFFSSSQFNEIDHILLAGGNANIPGLAKLLQQKLGYRVTIANPFLQMGFSPQVDVQKIENDASSLMVACGLALRSFD”, the “soluble on expression in E. coli” value was “not soluble”.
With “MDPNQPVKFTEFMPDSGGIRTKFIVKGSNFGEDKSQVKVYFKDEVGNEREALVLGVKPDVIYAQVPKQAGGESHVRVEIAGKEAELSNAEKTFKYIVTSSVSTVVGKAKEGGNKDGTLGETTFNTPRYVAVDNDDNVFIFDSDGRTRLSSIEQNKTITLLDGMVIDQPLFIDKEKKQLFGPCDNANFGCFLFDANVSWVADKMGQLLANGGWMHSVVLDPVDSTFVIYRQNTGQLWTQPFDKNRRTLNPNKAKRIGTLYNTGSNGLCAYNPVDKYVYCVLHSKSAVYRFKLTRDADGWPALDGDIDEYIPGAGAGFRDGDVQEAQFKEPRGIAIDKEGNLYIADVGNNRIRKVDTKLNVVTTIAGSGAAGYKDGDPLEAQFNQPWGVYLDKNEFLYIADQNNHCIRKLAIELEHHHHHH” the “soluble on expression in E. coli” value was “not soluble”.
In the case of “MAAVILESIFLKRSQQKKKTSPLNFKKRLFLLTVHKLSYYEYDFERGRRGSKKGSIDVEKITCVETVVPEKNPPPERQIPRRGEESSEMEQISIIERFPYPFQVVYDEGPLYVFSPTEELRKRWIHQLKNVIRYNSDLVQKYHPCFWIDGQYLCCSQTAKNAMGCQILENRNGSLKPGSSHRKTKKPLPPTPEEDQILKKPLPPEPAAAPVSTSELKKVVALYDYMPMNANDLQLRKGDEYFILEESNLPWWRARDKNGQEGYIPSNYVTEAEDSIEMYEWYSKHMTRSQAEQLLKQEGKEGGFIVRDSSKAGKYTVSVFAKSTGDPQGVIRHYVVCSTPQSQYYLAEKHLFSTIPELINYHQHNSAGLISRLKYPVSQQNKNAPSTAGLGYGSWEIDPKDLTFLKELGTGQFGVVKYGKWRGQYDVAIKMIKEGSMSEDEFIEEAKVMMNLSHEKLVQLYGVCTKQRPIFIITEYMANGCLLNYLREMRHRFQTQQLLEMCKDVCEAMEYLESKQFLHRDLAARNCLVNDQGVVKVSDFGLSRYVLDDEYTSSVGSKFPVRWSPPEVLMYSKFSSKSDIWAFGVLMWEIYSLGKMPYERFTNSETAEHIAQGLRLYRPHLASEKVYTIMYSCWHEKADERPTFKILLSNILDVMDEES”, the “soluble on expression in E. coli” value is reported as “soluble”.
With “MKVFTEKIPNIPWEERPEGYTGPVWRYSKNPIIGRNPVPKGARVFNSAVVPYNGEFVGVFRIDHKNTRPFLHFGRSKDGINWEIEPEEIQWVDVNGEPFQPSYAYDPRVVKIEDTYYITFCTDDHGPTIGVGMTKDFKTFVRLPNAYVPFNRNGVLFPRKINGKYVMLNRPSDNGHTPFGDIFLSESPDMIHWGNHRFVLGRSSYNWWENLKIGAGPYPIETSEGWLLIYHGVTLTCNGYVYSFGAALLDLDDPSKVLYRSRYYLLTPEEEYETVGFVPNVVFPCAALCDADTGRVAIYYGAADTHVALAFGYIDEIVDFVKRNSM” the “soluble on expression in E. coli” value was “not soluble”.
In the case of “TGVSSFQEILDKGMVFVNRNKGSGTRDLIEELIGNNESIRKNMKGYLWETNTEAGVARAVEQGRADAGITLEYYAIKLGLKYTHINKENYDILISKEFYDSEYGQAFIKNLKGLKDRIKNYPGYSVPDDI”, the “soluble on expression in E. coli” value is reported as “not soluble”.
In the case of “SWQTYVDTNLVGTGAVTQAAILGLDGNTWATSAGFAVTPAQGQTLASAFNNADPIRASGFDLAGVHYVTLRADDRSIYGKKGSAGVITVKTSKSILVGVYNEKIQPGTAANVVEKLADYLIGQGF”, the “soluble on expression in E. coli” value is reported as “soluble”.
With “MMKNPNDIGFIHDISSLDSLRQKAVKEGKDGEQEALHAAARQFESIFTSMMLKSMREANEGFESNIMNSQNEKFYRQMLDEQMASELSANGSMGLADMIVAQLTAGQGNDKSETAMRDAANSAVEYRRVDPKKAREIEKRLIESGELSRTSHTPAKFDSPESFVNSMKPYAEKAAKALGVEPSLLLAQAALETGWGQKVVQNARGSSNNLFNIKADRSWQGDKVTTQTLEFHDNTPVKETAAFRSYSNYQDSFNDYVRFLNDNPRYETALQQRGDSESFIRGIHRAGYATDPTYADKVLQVKQKIESM” the “soluble on expression in E. coli” value was “not soluble”.
For “MAHHHHHHMIVLLRKNNLKNTLRLFPLGCNNKLVFMRGYINEQTKGPIEKKTTDNNEKMLLNKTLEDVKVSKENSCNALFDECLEELYRMKKKVDKESVEYDNSPIIEELNREELKITRNIFERINKKKKHVSNLSYKDIYIDPYWNPFKDVDNLKQEILYEFNEYSKMASIVELKKQRRAIKKSLKEQYKLYNPYSEEYNKHFNLNMDNDVKEQQMECHDKDEKYWNPSFNKRKILNIKSPFIWRYTHLLHHFIGENGLILPRKINMTTRKQQIQIFKSICIARRMALYPYDKKPEKDDLIPLMDPLQFLLDELIHRYIQLNDLRAQAIIKVMINRYPSLNYYKYFFYESKKEKDKNEKTAQNEQEENVSEKKEPFSQMLQKYKKNYYENFYKY”, the “soluble on expression in E. coli” value was “not soluble”.
With “MAHHHHHHMMNMFYRRDFPVSFRYVNDHSKFIGAGSGRGNRKRGMAPNNYTEYLRIMANEANGTGQDTSRVLFIDSEVNYRFTPVQTIVLDAYEPLTRRQQRRLVQQQYSNPFGDVSSRNARRYGAAAARARKMTVRHRAVVSAQHLQDAVDMQQKYTDFLIAEQEGVQLPPEMRNGVQDGHGGDLCHFSKRHPQRSAPSSSSPPHPQQGGSTRGRVSGPLSTPGPSSLADTESDKTPPDGNKDIKEEQQQLSMSCALAVNLEDYSLVALAEMIAEMSASETSVADYIKTEPLIEKVEVPFHGKANYLAPENCDNIDLLNWDEIQVLEKAHGTGVPEMVEETEDHKDFFR” the “soluble on expression in E. coli” value was “not soluble”.
